Results taken from patent US20260183370A1 (ASCENDIS PHARMA GROWTH DISORDERS A S, published 2026).
Bridge positions count the residues as written; N and C are the ends. Side chains are listed from the residue outwards. Ends that are not written are not given here. * marks the point of attachment. Hexanoyl(6-maleimido) = O=C1C=CC(=O)N1CCCCCC(=O)*; reversible prodrug linker = not defined here

B1: Reversible Lys26 CNP-38 PEG4x10 kDa conjugate 11i (peptide)
peptide: LQEHPNARKYKGANKKGLSKGCFGLK([reversible prodrug linker-4x10 kDa PEG])LDRIGSMSGLGC
modifications: disulfide 22-38; reading uncertain
notes: This is a reversible conjugate with an in vitro release half-life of 9.5 d
B2: Permanent Lys26 CNP-38 PEG 5 kDa conjugate 19e (peptide)
peptide: LQEHPNARKYKGANKKGLSKGCFGLKLDRIGSMSGLGC
modifications: 5 kDa PEG stably attached through maleimidohexanoyl/thiol to the side chain of Lys26 (ring lysine); disulfide Cys22-Cys38
B3: Conjugate 31d (4-arm PEG 40 kDa, Lys26 CNP-38, reversible conjugate) (peptide)
peptide: LQEHPNARKYKGANKKGLSKGCFGLKLDRIGSMSGLGC
modifications: not fully specified; Lys26 side chain attached through a reversible Asn-linker (maleimidohexanoyl) to a thiol arm of 4-arm-thiol-PEG 40 kDa; disulfide Cys22-Cys38
B4: Reversible Lys26 CNP-38 PEG2x20 kDa conjugate 10f (peptide)
peptide: LQEHPNARKYKGANKKGLSKGCFGLKLDRIGSMSGLGC
modifications: disulfide 22-38; not fully specified (residue 26)
notes: This is a reversible conjugate with an in vitro release half-life of 8.5 d

How the values were obtained:
[1] = target: T1, NPR-C (natriuretic peptide receptor C), expressed on Hek293 cells (UniProt P17342 27-541, limits assumed); test: competition with fluorescein-labelled CNP-38 27d on NPR-C expressing Hek293 cells, flow cytometry (MFI), 4PL fit; ratio to CNP-38
T1 construct: whole, on cells
T1 sequence (looked up): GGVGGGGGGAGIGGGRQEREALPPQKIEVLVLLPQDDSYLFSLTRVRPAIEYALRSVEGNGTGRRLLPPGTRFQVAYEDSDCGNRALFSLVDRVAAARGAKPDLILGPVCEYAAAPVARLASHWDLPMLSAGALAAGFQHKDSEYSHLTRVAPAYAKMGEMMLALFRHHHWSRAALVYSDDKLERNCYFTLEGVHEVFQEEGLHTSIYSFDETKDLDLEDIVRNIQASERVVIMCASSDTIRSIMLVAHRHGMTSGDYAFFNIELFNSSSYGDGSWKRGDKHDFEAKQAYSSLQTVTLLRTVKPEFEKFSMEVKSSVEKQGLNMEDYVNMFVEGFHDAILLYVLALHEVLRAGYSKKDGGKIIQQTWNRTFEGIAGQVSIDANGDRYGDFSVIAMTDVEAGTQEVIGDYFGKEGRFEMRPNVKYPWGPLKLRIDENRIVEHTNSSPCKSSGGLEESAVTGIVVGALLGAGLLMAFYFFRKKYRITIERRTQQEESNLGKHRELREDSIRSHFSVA
Text: For the NPR—C affinity assay, a NPR—C expressing Hek293 cell line was developed. The coding region of the NPR—C sequence (BC131540) was cloned into a lentiviral vector under CMV promoter for constitutive receptor expression. A bicistronic element located on the vector for puromycin resistence was used as eukaryotic selection marker. After transduction, stably growing cell pools were subjected to qRT-PCR for confirmation of receptor mRNA-expression compared to parental Hek293 cells. An NPR—C-expressing cell pool was expanded and frozen as master cell bank for CNP sample testing.
For the assay, growing cells were trypsinized from the cell flask bottom, counted, and seeded in a 96-well plate (1.5×10⁵/well) and centrifuged. Supernatants were discarded. CNP standard and sample were serially diluted over 9 steps in PBS 0.2% BSA and transferred to the micro plate in duplicates and mixed with cells. […] Subsequently, cells were analyzed by flow cytometry using mean fluorescence intensity of the FITC channel (FL1, Beckman Coulter FC500MPL) as read out.

[2] = target: T2, NPR-B receptor (natriuretic peptide receptor B), endogenous on NIH-3T3 cells (murine (endogenous in NIH-3T3 cells), UniProt Q6VVW5 17-1047); test: cell-based or functional assay
T2 sequence (looked up): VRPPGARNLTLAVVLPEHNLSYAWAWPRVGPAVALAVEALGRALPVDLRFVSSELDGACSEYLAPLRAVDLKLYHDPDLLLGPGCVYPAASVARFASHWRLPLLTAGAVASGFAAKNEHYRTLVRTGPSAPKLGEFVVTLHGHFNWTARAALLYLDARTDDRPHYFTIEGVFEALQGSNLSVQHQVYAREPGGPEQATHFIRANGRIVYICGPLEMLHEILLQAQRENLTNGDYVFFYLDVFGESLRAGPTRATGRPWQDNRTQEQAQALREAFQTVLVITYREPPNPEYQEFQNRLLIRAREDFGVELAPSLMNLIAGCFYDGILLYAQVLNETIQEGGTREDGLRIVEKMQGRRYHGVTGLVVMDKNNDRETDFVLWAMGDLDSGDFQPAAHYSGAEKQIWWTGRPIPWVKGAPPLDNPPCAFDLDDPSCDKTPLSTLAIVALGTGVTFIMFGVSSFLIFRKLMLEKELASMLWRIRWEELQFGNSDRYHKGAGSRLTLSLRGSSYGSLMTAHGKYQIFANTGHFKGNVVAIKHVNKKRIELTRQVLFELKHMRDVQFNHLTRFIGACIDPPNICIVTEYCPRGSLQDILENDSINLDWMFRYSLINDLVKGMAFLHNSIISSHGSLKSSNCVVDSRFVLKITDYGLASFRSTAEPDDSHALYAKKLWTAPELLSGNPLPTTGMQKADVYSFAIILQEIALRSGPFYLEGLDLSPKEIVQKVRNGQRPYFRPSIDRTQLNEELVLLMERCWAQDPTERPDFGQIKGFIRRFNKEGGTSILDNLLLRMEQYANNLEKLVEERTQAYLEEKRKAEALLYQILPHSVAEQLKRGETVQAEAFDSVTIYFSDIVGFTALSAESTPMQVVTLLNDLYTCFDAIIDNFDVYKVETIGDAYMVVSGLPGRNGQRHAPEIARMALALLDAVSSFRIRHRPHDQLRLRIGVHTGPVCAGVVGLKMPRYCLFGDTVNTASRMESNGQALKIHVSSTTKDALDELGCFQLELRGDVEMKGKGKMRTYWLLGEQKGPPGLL

[3] = target: T2, NPR-B receptor (natriuretic peptide …); test: cell-based or functional assay; remark: listed apart in the source

Binder | IC50 of PEGylated CNP-38/IC50 CNP-38 [1] | EC50 compound/EC50 CNP-38 (residual NPR-B activity, cGMP production in NIH-3T3 cells) [2] | EC50 compound/EC50 CNP-38 (cGMP production in NIH-3T3 cells) [3]
B1 | 91 ratio | > 100 ratio | –
B2 | 1.1 ratio | > 100 ratio | –
LQEHPNARKYKGANKKGLSKGCFGLKLDRIGSMSGLGC (disulfide 22-38; not fully specified (residue 26)) [Permanent Lys26 CNP-38 PEG4x10 kDa conjugate 12g] | 143 ratio | > 100 ratio | –
LQEHPNARKYKGANKKGLSKGCFGLKLDRIGSMSGLGC (disulfide 22-38) | – | – | 1 ratio
B3 | 1.7 ratio | – | –
B4 | 12 ratio | > 100 ratio | –
{PEG 5 kDa-Hexanoyl(6-maleimido)}-LQEHPNARKYKGANKKGLSKGCFGLKLDRIGSMSGLGC (disulfide 22-38) [Permanent N-terminal CNP-38 PEG 5 kDa conjugate 15e] | 0.53 ratio | > 5 ratio | –
